The target in experiment [1] is T1, membrane-bound full-length human CD89 on HEK293F cells (human, UniProt P24071 22-287).
T1 construct: 2 or transient transfectants; also called membrane human CD89; human FcaRI
The experiment is described as follows: FACS HEK293F-huCD89.
Protocol: After extensive washing in PBS/BSA/NaN₃, cells were subsequently incubated with 1:200 diluted PE-conjugated goat anti-human IgG Fcy-specific antibodies (Jackson ImmunoResearch) for 30 minutes at 4° C. After extensive washing in PBS/BSA/NaN₃, cells were fixed in 2% formaldehyde in PBS/BSA/NaN₃ for 30 minutes at 4° C.

For experiment [2], the target named is T2, recombinant C-terminal polyhistidine-tagged human (extracellular) CD89 (Sino Biological) (human, UniProt P24071 22-227).
T2 construct: extracellular domain; bought protein; also called rhuCD89; soluble monomeric rhuCD89
The experiment is described as follows: ELISA, coated rhuCD89.

For experiment [3], the target named is T1, membrane-bound full-length human CD89 …. The experiment is described as follows: FACS on HEK293F-huCD89.
Protocol: Then, 10 µL/tube (i.e., 0.1 x 10⁶ cells) of these cells were incubated with 100 µL titrated (in PBS/BSA/NaN₃) purified mouse anti-human CD89 antibody/tube for 30 minutes at 4° C. […] After extensive washing in PBS/BSA/NaN₃, cells were subsequently incubated with 1:200 diluted PE-conjugated goat anti-mouse IgG Fcy-specific antibodies (Jackson ImmunoResearch) for 30 minutes at 4° C. After extensive washing in PBS/BSA/NaN₃, cells were fixed in 2% formaldehyde in PBS/BSA/NaN₃ for 30 minutes at 4° C.
In experiment [4] the target is membrane human CD89 on ex vivo primary human neutrophilic granulocytes or monocytic U937 cells (human, UniProt P24071 22-287). Kind of experiment: cell-based or functional assay.
Experiment [5] concerns the target T1, membrane-bound full-length human CD89 …. The experiment is described as follows: FACS HEK293F-huCD89, 10 ug/mL; competitor PE-A3.
Protocol: (§1) Then, 10 µL/tube (i.e., 0.1 × 10⁶ cells) of these cells were incubated with or without 100 µL purified mouse anti-human CD89 antibody at 10 µg/mL (in PBS/BSA/NaN₃) for 30 minutes at 4° C. […] After extensive washing in PBS/BSA/NaN₃, cells were fixed in 2% formaldehyde in PBS/BSA/NaN₃ for 30 minutes at 4° C.
The target is the same in experiment [6]. Kind of experiment: FACS HEK293F-huCD89, 10 ug/mL; competitor PE-A59.
Protocol: as §1
For experiment [7] the target is unchanged. Kind of experiment: FACS HEK293F-huCD89, 10 ug/mL; competitor PE-MIP8a.
Protocol: as §1
The target of experiment [8] is T3, chimeric bovine EC1-Fcgamma2R/human EC2-CD89 on HEK293F cells (bovine/human chimera).
T3 chain: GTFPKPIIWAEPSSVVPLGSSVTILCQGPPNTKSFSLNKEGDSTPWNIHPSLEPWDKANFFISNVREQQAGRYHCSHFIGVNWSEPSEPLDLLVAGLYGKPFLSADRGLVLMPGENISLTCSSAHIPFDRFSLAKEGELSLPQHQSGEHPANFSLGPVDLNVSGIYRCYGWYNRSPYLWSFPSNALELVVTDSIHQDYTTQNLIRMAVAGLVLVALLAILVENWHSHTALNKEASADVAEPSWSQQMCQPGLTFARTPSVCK
The experiment is described as follows: FACS, transiently transfected HEK293F.
Protocol: To this end, transient transfected HEK293F cells were put at 10 × 10⁶ cells/mL in ice-chilled phosphate-buffered saline containing 0.1% BSA (Sigma)/0.05% NaN₃ (PBS/BSA/NaN₃) supplemented with 50 µg/mL human IgGs (blocking Fcy receptors; Sigma) for 10 minutes at 4° C. Then, 10 µL/tube (i.e., 0.1 × 10⁶ cells) of these cells were incubated with or without 100 µL purified mouse anti-human CD89 antibody at 10 µg/mL (in PBS/BSA/NaN₃) for 30 minutes at 4° C. […] After extensive washing in PBS/BSA/NaN₃, cells were subsequently incubated with 1:200 diluted PE-conjugated goat anti-mouse IgG Fcy-specific antibodies (Jackson ImmunoResearch) for 30 minutes at 4° C. After extensive washing in PBS/BSA/NaN₃, cells were fixed in 2% formaldehyde in PBS/BSA/NaN₃ for 30 minutes at 4° C.

In experiment [9] the target is T4, chimeric human/cynomolgus monkey CD89-II on HEK293F cells (human/cynomolgus chimera, UniProt P24071 22-287).
T4 construct: also called dIle47 - Ile71 human EC1-CD89; II (47-71)
T4 chain: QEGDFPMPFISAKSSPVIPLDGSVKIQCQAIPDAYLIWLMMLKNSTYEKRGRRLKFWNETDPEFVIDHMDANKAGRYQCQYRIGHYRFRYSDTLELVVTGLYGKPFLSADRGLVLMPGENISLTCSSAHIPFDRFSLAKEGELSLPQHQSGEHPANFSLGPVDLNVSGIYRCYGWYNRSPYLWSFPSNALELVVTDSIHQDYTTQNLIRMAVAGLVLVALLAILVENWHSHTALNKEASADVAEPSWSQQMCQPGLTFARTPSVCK
The experiment is described as follows: FACS, transiently transfected HEK293F.
Protocol: (§2) To this end, transient transfected HEK293F cells were put at 10 × 10⁶ cells/mL in ice-chilled phosphate-buffered saline containing 0.1% BSA (Sigma)/0.05% NaN₃ (PBS/BSA/NaN₃) supplemented with 50 µg/mL human IgGs (blocking FcY receptors; Sigma) for 10 minutes at 4° C. Then, 10 µL/tube (i.e., 0.1 × 10⁶ cells) of these cells were incubated with or without 100 µL purified mouse anti-human CD89 antibody at 10 µg/mL (in PBS/BSA/NaN₃) for 30 minutes at 4° C. […] After extensive washing in PBS/BSA/NaN₃, cells were subsequently incubated with 1:200 diluted PE-conjugated goat anti-mouse IgG Fcy-specific antibodies (Jackson ImmunoResearch) for 30 minutes at 4° C. After extensive washing in PBS/BSA/NaN₃, cells were fixed in 2% formaldehyde in PBS/BSA/NaN₃ for 30 minutes at 4° C.

Experiment [10] addresses T5, chimeric human/cynomolgus monkey CD89-I on HEK293F cells (human/cynomolgus chimera, UniProt P24071 22-287).
T5 construct: also called dGln22 - Lys46 human EC1-CD89; I (22-46)
T5 chain: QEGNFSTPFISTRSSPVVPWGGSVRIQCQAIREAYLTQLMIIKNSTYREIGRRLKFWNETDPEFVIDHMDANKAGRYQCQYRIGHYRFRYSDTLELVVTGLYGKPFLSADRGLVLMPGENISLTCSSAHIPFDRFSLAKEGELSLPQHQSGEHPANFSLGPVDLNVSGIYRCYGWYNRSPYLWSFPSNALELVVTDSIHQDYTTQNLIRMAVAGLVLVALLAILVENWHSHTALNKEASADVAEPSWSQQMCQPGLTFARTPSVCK
The experiment is described as follows: FACS, 10 µg/mL, transiently transfected HEK293F.
Protocol: as §2

In experiment [11] the target is T6, chimeric human/cynomolgus monkey CD89-III on HEK293F cells (human/cynomolgus chimera, UniProt P24071 22-287).
T6 construct: also called dGly72 - Gly96 human EC1-CD89; III (72-96)
T6 chain: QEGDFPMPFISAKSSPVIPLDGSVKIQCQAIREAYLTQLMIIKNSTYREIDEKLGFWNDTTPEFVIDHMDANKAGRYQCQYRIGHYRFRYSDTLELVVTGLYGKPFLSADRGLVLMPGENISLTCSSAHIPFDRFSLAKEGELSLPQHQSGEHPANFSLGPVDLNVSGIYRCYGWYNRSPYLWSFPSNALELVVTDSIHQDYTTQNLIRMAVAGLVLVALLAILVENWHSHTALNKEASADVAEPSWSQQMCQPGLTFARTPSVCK
Kind of experiment: FACS, 10 µg/mL, transiently transfected HEK293F.
Protocol: as §2

Experiment [12] addresses T7, chimeric human/cynomolgus monkey CD89-IV on HEK293F cells (human/cynomolgus chimera, UniProt P24071 22-287).
T7 construct: also called dArg97 - Gly121 human EC1-CD89
T7 chain: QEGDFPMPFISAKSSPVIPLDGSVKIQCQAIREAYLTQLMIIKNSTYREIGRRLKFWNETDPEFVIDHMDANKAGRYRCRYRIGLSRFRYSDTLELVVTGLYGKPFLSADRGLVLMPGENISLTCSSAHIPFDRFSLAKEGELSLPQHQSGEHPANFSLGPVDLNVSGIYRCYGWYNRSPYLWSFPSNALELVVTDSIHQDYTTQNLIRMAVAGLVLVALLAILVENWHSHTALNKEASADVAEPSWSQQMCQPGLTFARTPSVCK
The experiment is described as follows: FACS, 10 µg/mL, transiently transfected HEK293F.
Protocol: as §2

For experiment [13], the target named is T8, chimeric human/cynomolgus monkey CD89-hotspots on HEK293F cells (human/cynomolgus chimera, UniProt P24071 22-287).
T8 construct: also called dThr58, Gln59; dArg73, Arg74, Lys76
T8 chain: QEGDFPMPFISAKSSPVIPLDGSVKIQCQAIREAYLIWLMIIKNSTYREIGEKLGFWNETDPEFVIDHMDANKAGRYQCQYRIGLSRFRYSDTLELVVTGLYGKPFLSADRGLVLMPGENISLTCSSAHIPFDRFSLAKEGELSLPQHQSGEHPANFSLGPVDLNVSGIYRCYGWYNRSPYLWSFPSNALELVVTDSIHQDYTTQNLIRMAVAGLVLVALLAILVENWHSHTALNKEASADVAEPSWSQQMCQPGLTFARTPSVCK
Kind of experiment: FACS, 10 µg/mL, transiently transfected HEK293F.
Protocol: as §2

Experiment [14] deals with T1, membrane-bound full-length human CD89 …. Kind of experiment: FACS, unlabelled antibody before MIP8a-PE on HEK293F-huCD89.
Experiment [15] has the same target. The experiment is described as follows: FACS, antibody before serum IgA on HEK293F-huCD89; IgA detected.
Protocol: Then, 10 µL/tube (i.e., 0.1 x 10⁶ cells) of these cells were incubated with 50 µL titrated (in PBS/BSA/NaN₃) purified mouse anti-human CD89 antibody/tube for 30 minutes at 4° C. […] After extensive washing in PBS/BSA/NaN₃, 1:200 diluted PE-conjugated streptavidin (Jackson ImmunoResearch) was added, and incubated for 30 minutes at 4° C. After extensive washing in PBS/BSA/NaN₃, cells were fixed in 2% formaldehyde in PBS/BSA/NaN₃ for 30 minutes at 4° C.
The target of experiment [16] is T2, recombinant C-terminal …. Kind of experiment: ELISA, antibody before serum IgA on coated rhuCD89; IgA detected.
Protocol: After extensive washing with PBS/0.05% Tween 20, plates were blocked with PBS/0.05% Tween 20/1% BSA (Roche) for 1 hour at RT. Subsequently, plates were incubated with 25 µL titrated (in block buffer) purified mouse anti-human CD89 antibody/well for 30 minutes at RT. […] After extensive washing in PBS/0.05% Tween 20, 1:10,000 diluted HRP-conjugated streptavidin (Jackson ImmunoResearch) was added, and incubated for 1 hour at RT, followed by a ready-to-use solution of TMB substrate (Invitrogen) for colorimetric detection.
Experiment [17] has as its target T1, membrane-bound full-length human CD89 …. Kind of experiment: FACS, antibody before secretory IgA on HEK293F-huCD89; IgA detected.
Protocol: Then, 10 µL/tube (i.e., 0.1 x 10⁶ cells) of these cells were incubated with or without 50 µL titrated (in PBS/BSA/NaN₃) purified mouse anti-human CD89 antibody/tube for 30 minutes at 4° C. […] After extensive washing in PBS/BSA/NaN₃, 1:200 diluted PE-conjugated streptavidin (Jackson ImmunoResearch) was added, and incubated for 30 minutes at 4° C. After extensive washing in PBS/BSA/NaN₃, cells were fixed in 4% formaldehyde in PBS/BSA/NaN₃ for 30 minutes at 4° C.
The target of experiment [18] is T9, membrane full-length cynomolgus monkey CD89 on HEK293F cells (cynomolgus monkey).
T9 construct: also called cynoCD89; cynomolgus EC1-CD89
T9 chain: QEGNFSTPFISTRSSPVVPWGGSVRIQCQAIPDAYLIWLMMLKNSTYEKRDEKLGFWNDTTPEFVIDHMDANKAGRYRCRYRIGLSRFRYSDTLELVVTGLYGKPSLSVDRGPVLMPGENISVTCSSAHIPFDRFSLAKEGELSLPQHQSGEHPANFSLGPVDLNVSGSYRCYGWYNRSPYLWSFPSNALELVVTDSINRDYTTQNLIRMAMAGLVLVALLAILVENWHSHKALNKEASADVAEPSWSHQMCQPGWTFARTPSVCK
The experiment is described as follows: FACS, transiently transfected HEK293F.
Protocol: To this end, transient transfected HEK293F cells were put at 10 x 10⁶ cells/mL in ice-chilled phosphate-buffered saline containing 0.1% BSA (Sigma)/0.05% NaN₃ (PBS/BSA/NaN₃) supplemented with 50 µg/mL human IgGs (blocking FcY receptors; Sigma) for 10 minutes at 4° C. Then, 10 µL/tube (i.e., 0.1 × 10⁶ cells) of these cells were incubated with or without 100 µL purified mouse anti-human CD89 antibody at 10 µg/mL (in PBS/BSA/NaN₃) for 30 minutes at 4° C. […] After extensive washing in PBS/BSA/NaN₃, cells were subsequently incubated with 1:200 diluted PE-conjugated goat anti-mouse IgG Fcy-specific antibodies (Jackson ImmunoResearch) for 30 minutes at 4° C. After extensive washing in PBS/BSA/NaN₃, cells were fixed in 2% formaldehyde in PBS/BSA/NaN₃ for 30 minutes at 4° C.

Experiment [19] concerns the target T1, membrane-bound full-length human CD89 …. Kind of experiment: FACS HEK293F-huCD89, supernatant.
Protocol: After extensive washing in PBS/BSA/NaN₃, cells were subsequently incubated with 1:200 diluted PE-conjugated goat anti-human IgG Fcγ-specific antibodies (Jackson ImmunoResearch) for 30 minutes at 4° C. After extensive washing in PBS/BSA/NaN₃, cells were fixed in 4% formaldehyde in PBS/BSA/NaN₃ for 30 minutes at 4° C.
Experiment [20] concerns the target T2, recombinant C-terminal …. The experiment is described as follows: ELISA, coated rhuCD89, supernatant.
Protocol: After extensive washing with PBS/0.05% Tween 20, plates were blocked with PBS/0.05% Tween 20/1% BSA (Roche) for 1 hour at RT. […] After extensive washing in PBS/0.05% Tween 20, binding of antibodies on rhuCD89 was determined with 1:5,000 diluted horseradish peroxidase (HRP)-conjugated goat anti-human IgG Fcγ-specific antibodies (Jackson ImmunoResearch) for 1 hour at RT, followed by a ready-to-use solution of TMB substrate (Invitrogen) for colorimetric detection. After adding 1 M HCL, binding (optical density) of antibodies on rhuCD89 was measured at wavelength of 450 nm (reference wavelength of 655 nm) using a microplate reader (Synergy HTX; BioTek).

B1: CD89/IgA blocking mouse anti-human CD89-specific antibody 30C7 (antibody, V domains shown)
VH: QVQLQQSGPELVRPGVSVKISCKGSGYTFTDYVMHWVKQSHAKSLEWIGVISTYSGNTNYNQKFKGKATMTVDKSSSTAYMELARLTSEDSAIYYCARESDGYYFDYWGQGTTLTVSS
VL: DIVMSQSPSSLAVSAGEKVTMSCKSSQSLLNSRTRKNYLAWYQQKPGQSPKLLIYWASTRESGVPDRFTGSGSGTDFTLTISSVQAEDLAVYYCKQSYNLMYTFGGGTKLEIK
As to B1, the EC50 in experiment [1] was determined as 0.484 µg/mL; in experiment [2] it was 0.029 µg/mL. Also, the “EC50 (read off the curve)” value in [3] was roughly 0.4 µg/mL. The “IC50 (read off the bars), binding of granulocytes to plate-bound serum IgA [Donor 2]” value in experiment [4] is roughly 0.6 µg/mL. For the same molecule, the “% blocking of PE-A3 binding” value in experiment [5] was less than 25%. The “% blocking of PE-A59 binding” value in experiment [6] is less than 25%. Also, the “% blocking of PE-MIP8a binding” value in [7] is greater than 90%. Besides, the binding result in experiment [8] is “no binding (tested: 10 µg/mL)”; in experiment [9], “no binding (tested: 10 µg/mL)”; in experiment [10], “binds”; in experiment [11] it was “binds”; in experiment [12], “binds”; in experiment [13] it was “binds”. The “IC50 (read off the curve)” value is roughly 1 µg/mL in experiment [14], roughly 0.6 µg/mL in experiment [15], roughly 0.1 µg/mL in experiment [16] and roughly 1 µg/mL in experiment [17].

B2: CD89/IgA blocking mouse anti-human CD89-specific antibody 20B4 (antibody, V domains shown)
VH: QVQLKESGPGLVAPSQSLSITCTVSGFSLTSYGVHWVRQPPGKGLEWLGIIWAGGSTSYNSALMSRLSISKDNSKSQVFLKMNSLQTDDTAMYYCARDHYDLFAYWGQGTLVTVSA
VL: DILMTQSPSSMSVSLGDTVSITCHASQDISRNIGWLQQKPGKSFKGLIYHGTNLEDGVPSRFSGSGSGADYSLTISSLESEDFADYYCVQYAQFPRTFGGGTKLEIK
Regarding B2, the half-maximal effective concentration (EC50) in [1] was 0.26 µg/mL; in [2], 0.013 µg/mL. The 50% effective concentration (EC50 (read off the curve)) in [3] was roughly 0.2 µg/mL. Also, in experiment [7], the “% blocking of PE-MIP8a binding” value was less than 25%. Also, the binding result is listed as “no binding (tested: 10 µg/mL)” in experiment [8]; “no binding (tested: 10 µg/mL)” in experiment [18]; “no binding (tested: 10 µg/mL)” in experiment [9]; “binds” in experiment [10]; “binds” in experiment [11]; “binds” in experiment [12]. Further, the binding result in [13] was “binds”. The “IC50 (read off the curve)” value in [15] was roughly 0.3 µg/mL; in experiment [17], roughly 0.4 µg/mL.

B3: humanized IgG4/kappa anti-human CD89 monoclonal antibody 10E7 version VH3VL3 (antibody)
heavy: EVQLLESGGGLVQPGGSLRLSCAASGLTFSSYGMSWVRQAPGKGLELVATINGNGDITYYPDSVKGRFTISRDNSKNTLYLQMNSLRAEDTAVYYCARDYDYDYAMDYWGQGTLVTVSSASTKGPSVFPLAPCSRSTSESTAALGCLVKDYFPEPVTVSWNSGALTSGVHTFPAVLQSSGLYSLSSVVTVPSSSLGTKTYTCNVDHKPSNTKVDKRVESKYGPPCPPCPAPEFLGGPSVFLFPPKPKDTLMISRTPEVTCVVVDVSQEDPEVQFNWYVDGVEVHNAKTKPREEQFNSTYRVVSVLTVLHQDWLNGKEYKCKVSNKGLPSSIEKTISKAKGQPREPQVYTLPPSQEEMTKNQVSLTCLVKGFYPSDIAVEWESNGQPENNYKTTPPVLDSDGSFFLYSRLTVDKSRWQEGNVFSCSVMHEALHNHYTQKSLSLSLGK
light: DIQMTQSPSSLSASVGDRVTITCRASQDIINYLNWYQQKPGKAVKLLIYYTSRLHSGVPSRFSGSGSGTDYTLTISSLQPEDFATYYCQQGKTLPYTFGQGTKLEIKRTVAAPSVFIFPPSDEQLKSGTASVVCLLNNFYPREAKVQWKVDNALQSGNSQESVTEQDSKDSTYSLSSTLTLSKADYEKHKVYACEVTHQGLSSPVTKSFNRGEC
notes: tested as supernatant; signal peptide end derived as for m17
Consider B3, for which the concentration giving a half-maximal response (EC50) in experiment [19] was roughly 1 µg/mL; in experiment [20] it was roughly 0.02 µg/mL.

B4: humanized IgG4/kappa anti-human CD89 monoclonal antibody 10E7 version VH3VL4 (antibody)
heavy: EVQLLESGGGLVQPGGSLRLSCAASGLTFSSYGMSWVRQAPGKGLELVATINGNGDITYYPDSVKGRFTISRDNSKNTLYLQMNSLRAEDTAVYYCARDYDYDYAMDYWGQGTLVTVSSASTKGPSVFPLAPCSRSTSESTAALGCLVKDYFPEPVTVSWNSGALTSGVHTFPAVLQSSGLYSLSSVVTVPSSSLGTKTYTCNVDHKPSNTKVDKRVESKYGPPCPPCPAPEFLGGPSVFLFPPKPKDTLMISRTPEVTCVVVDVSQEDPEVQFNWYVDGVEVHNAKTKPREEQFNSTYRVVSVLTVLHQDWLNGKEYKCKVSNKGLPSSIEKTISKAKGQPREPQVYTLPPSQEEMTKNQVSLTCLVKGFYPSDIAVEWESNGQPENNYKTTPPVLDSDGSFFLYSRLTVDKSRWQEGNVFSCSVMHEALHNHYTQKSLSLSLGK
light: DIQMTQSPSSLSASVGDRVTITCRASQDIINYLNWYQQKPGKTVKLLIYYTSRLHSGVPSRFSGSGSGTDYTLTISSLQPEDFATYFCQQGKTLPYTFGQGTKLEIKRTVAAPSVFIFPPSDEQLKSGTASVVCLLNNFYPREAKVQWKVDNALQSGNSQESVTEQDSKDSTYSLSSTLTLSKADYEKHKVYACEVTHQGLSSPVTKSFNRGEC
notes: as for B3
Take B4: the EC50 in experiment [19] is roughly 1 µg/mL; in experiment [20] it was roughly 0.02 µg/mL.

The values are drawn from patent publication US20230242646A1 (JJP BIOLOGICS SP Z O O, published 2023).
